From publication PMC10819093

Legend:
[1] = target: HIV-1 gp120 protein (surface plasmon resonance) (HIV-1); test: SPR; BIAcore 3000; HIV-1 proteins amine coupled to CM-5 chips (50 µg/mL in 20 mM sodium acetate); serially diluted antibody injected at 30 µL/minute for about 100 s in HBS (10 mM HEPES, 150 mM NaCl, 3 mM EDTA)
[2] = target: HIV-1 gp41 protein (surface plasmon resonance) (HIV-1); test: as above

Kd [1]	Kd [2]	Substance
0.46 nM	–	trispecific antibody iMab + PRO140 + PGDM1400
–	6.12 nM	trispecific antibody iMab + PRO140 + 10E8
0.59 nM	–	trispecific antibody iMab + PRO140 + PGT121
